The source of these data is paper PMC1698263.

The data set deals with FMRP (fragile X mental retardation protein) (human, UniProt Q06787 1-632). In words: EMSA; FMRP 0.35-1.4 ug; 0.50 pmol RNA; FMRP EMSA: 30 min on ice, 6% nondenaturing PAGE; buffer, salt and pH not given (cited ref 18). Strand annealing assays (FMRP, I304N, dKHT, FXR1P) read RNA:RNA a. A general note: Mobility shift assays separate free from complexed probe on a gel.

Take UAGGUAGUUUCAUGUUGUUGG (ssRNA) [hsa-miR-196a-1 mature miRNA]: the binding result was “binds”.
